Numbering of substitutions follows the chain as printed. Names and notes keep the numbering of the source. Like-named read-outs stand apart in the source and are kept apart here.
Experiments:
[1] = biological target: T1, Drosophila melanogaster AgmNAT (CG15766), wild-type (Drosophila melanogaster, UniProt Q9W469); assay: AgmNAT dead-end and product inhibition analysis; format: biochemical
Experimental: Initial velocities were determined by varying the concentration of one substrate, while holding the other substrate at a fixed concentration. […] The resulting initial velocity data was fit to equation 3 for an ordered Bi-Bi mechanism and equation 4 for a ping pong mechanism using IGOR Pro 6.34 A, where vo is the initial velocity, Vmax is the maximal velocity, Kia is the dissociation constant for substrate A, Kb is the Michaelis constant for substrate B, Ka is the Michaelis constant for substrate A, [A] is the concentration of substrate A, and [B] is the concentration of substrate B.3 vo=Vmax[A][B]/KiaKb+Ka[B]+Kb[A]+[A][B] 4 vo=Vmax[A][B]/Ka[B]+Kb[A]+[A][B]
Inhibition experiments by either substrate analogs or N-acetylagamatine were used to discriminate between an ordered, random sequential, or ping pong kinetic mechanism. […] Initial velocity patterns were generated by varying the concentration of one substrate, holding the other substrate concentration at its apparent Km, and changing the concentration of inhibitor for each data set in triplicate. The resulting data was fit to equations 5–7, for competitive, noncompetitive, and uncompetitive inhibition respectively using SigmaPlot 12.0. For […], vo is the initial velocity, Vmax,app is the apparent maximal velocity, Km,app is the apparent Michaelis constant, [S] is the substrate concentration, [I] is the inhibitor concentration, and Ki is the inhibition constant.5 vo=Vmax,app[S]/Km,app(1+[I]/Ki)+[S] 6 vo=Vmax,app[S]/Km,app(1+[I]/Ki)+[S](1+[I]/Ki) 7 vo=Vmax,app[S]/Km,app+[S](1+[I]/Ki)

[2] = biological target: T1, Drosophila melanogaster AgmNAT (CG15766), wild-type; assay: AgmNAT steady-state kinetics, coenzyme A release with Ellman's reagent (DTNB); format: biochemical; details: for kcat,app / Km: 300 mM Tris-HCl pH 8.5, 150 µM DTNB; for acceptance as amine substrate: amine substrate screen with acetyl-CoA
Experimental: Steady-state kinetic constants for AgmNAT were determined by measuring the rate of coenzyme A release using Ellman’s reagent (DTNB) at 412 nm (molar absorptivity = 13,600 M^−1 cm^−1)[15]–[17]. […] Initial velocities were measured using a Cary 300 Bio UV-Visible spectrophotometer at 22 °C. Acyl-CoA kinetic constants were evaluated by holding the concentration of agmatine at a constant saturating concentration (5 mM). […] The apparent kinetic constants were determined by fitting the resulting data to equation 1 using SigmaPlot 12.0, where vo is the initial velocity, Vmax,app is the apparent maximal velocity, [S] is the substrate concentration, and Km,app is the apparent Michaelis constant. Each assay was performed in triplicate and the uncertainty for the kcat,app and (kcat/Km)app values were calculated using equation 2, where σ is the standard error.1 vo=Vmax,app[S]/Km,app+[S] 2 σ(x/y)=x/y(σx/x)^2+(σy/y)^2

[3] = substrate: NCCCCCN; assay: as above; format: biochemical, Drosophila melanogaster; details: other: amine varied, 500 μM acetyl-CoA, 300 mM Tris-HCl pH 8.5, 150 µM DTNB, 22.0 °C
[4] = substrate: NCCCCNCCCN; assay: as above; format: biochemical, Drosophila melanogaster; details: other: amine varied, 500 μM acetyl-CoA, 300 mM Tris-HCl pH 8.5, 150 µM DTNB, 22.0 °C
[5] = substrate: N=C(N)NCCCCN; assay: as above; format: biochemical, Drosophila melanogaster; details: other: amine varied, 500 μM acetyl-CoA, 300 mM Tris-HCl pH 8.5, 150 µM DTNB, 22.0 °C
[6] = substrate: N=C(N)NCCCCN; assay: Steady-state kinetics of AgmNAT site-directed mutant E34A; format: biochemical, Drosophila melanogaster; details: other: E34A, agmatine varied, saturating acetyl-CoA, pH 8.5
Source text: (§1) Following the amplification of the AgmNAT site-directed mutant, the sub-cloning, expression, and purification procedures are the same as discussed for the wild-type enzyme.

[7] = substrate: CC(=O)SCCNC(=O)CCNC(=O)[C@H](O)C(C)(C)COP(=O)(O)OP(=O)(O)OC[C@H]1O[C@@H](n2cnc3c(N)ncnc32)[C@H](O)[C@@H]1OP(=O)(O)O; assay: as above; format: biochemical, Drosophila melanogaster; details: other: E34A, acetyl-CoA varied, saturating agmatine, pH 8.5
Source text: as §1

[8] = substrate: N=C(N)NCCCCN; assay: Steady-state kinetics of AgmNAT site-directed mutant S171A; format: biochemical, Drosophila melanogaster; details: other: S171A, agmatine varied, saturating acetyl-CoA, pH 8.5
Source text: as §1

[9] = substrate: CC(=O)SCCNC(=O)CCNC(=O)[C@H](O)C(C)(C)COP(=O)(O)OP(=O)(O)OC[C@H]1O[C@@H](n2cnc3c(N)ncnc32)[C@H](O)[C@@H]1OP(=O)(O)O; assay: as above; format: biochemical, Drosophila melanogaster; details: other: S171A, acetyl-CoA varied, saturating agmatine, pH 8.5
Source text: as §1

[10] = substrate: N=C(N)NCCCCN; assay: Steady-state kinetics of AgmNAT site-directed mutant H206A; format: biochemical, Drosophila melanogaster; details: other: H206A, agmatine varied, saturating acetyl-CoA, pH 8.5
Source text: as §1

[11] = substrate: CC(=O)SCCNC(=O)CCNC(=O)[C@H](O)C(C)(C)COP(=O)(O)OP(=O)(O)OC[C@H]1O[C@@H](n2cnc3c(N)ncnc32)[C@H](O)[C@@H]1OP(=O)(O)O; assay: as above; format: biochemical, Drosophila melanogaster; details: other: H206A, acetyl-CoA varied, saturating agmatine, pH 8.5
Source text: as §1

[12] = substrate: N=C(N)NCCCCN; assay: Steady-state kinetics of AgmNAT site-directed mutant P35A; format: biochemical, Drosophila melanogaster; details: other: P35A, agmatine varied, saturating acetyl-CoA, pH 8.5
Source text: as §1

[13] = substrate: CC(=O)SCCNC(=O)CCNC(=O)[C@H](O)C(C)(C)COP(=O)(O)OP(=O)(O)OC[C@H]1O[C@@H](n2cnc3c(N)ncnc32)[C@H](O)[C@@H]1OP(=O)(O)O; assay: as above; format: biochemical, Drosophila melanogaster; details: other: P35A, acetyl-CoA varied, saturating agmatine, pH 8.5
Source text: as §1

[14] = varied substrate agmatine, constant acetyl-CoA (0.1 mM; 104 µM), read-out: Ki,s
[15] = acyl-CoA varied, 5 mM agmatine, read-out: Km,app
[16] = amine varied, 500 μM acetyl-CoA
[17] = amine varied, 500 μM acetyl-CoA, read-out: Km, app

Molecule: NC(N)=NCCCCN=C(N)N [Arcaine]
- Ki ([1]; varied substrate acetyl-CoA, constant agmatine (0.3 mM), read-out: Ki,i): 34 ± 1 µM
- Ki [1, 14]: 28 ± 1 µM
- type of inhibition plot (in words) ([1]; versus acetyl-CoA): uncompetitive
- type of inhibition plot (in words) ([1]; versus agmatine): competitive

Molecule: CCCC(=O)SCCNC(=O)CCNC(=O)[C@H](O)C(C)(C)COP(=O)(O)OP(=O)(O)OC[C@H]1O[C@@H](n2cnc3c(N)ncnc32)[C@H](O)[C@@H]1OP(=O)(O)O [Butyryl-CoA]
- kcat,app ([2]; acyl-CoA varied, 5 mM agmatine): 3.3 ± 0.1 s⁻¹
- Km [2, 15]: 40 µM

Molecule: NCCCCCN [Cadaverine]
- (kcat/Km)app,agmatine/(kcat/Km)app,polyamine ratio ([2]; acetyl-CoA as co-substrate): 1900

Molecule: CCCCCCCCCC(=O)SCCNC(=O)CCNC(=O)[C@H](O)C(C)(C)COP(=O)(O)OP(=O)(O)OC[C@H]1O[C@@H](n2cnc3c(N)ncnc32)[C@H](O)[C@@H]1OP(=O)(O)O [Decanoyl-CoA]
- kcat,app ([2]; acyl-CoA varied, 5 mM agmatine): 0.16 ± 0.01 s⁻¹
- Km [2, 15]: 70 µM
- decrease in kcat,app from acetyl-CoA to decanoyl-CoA ([2]; agmatine as saturating amine substrate): ~ 150 fold

Molecule: CCCCCC(=O)SCCNC(=O)CCNC(=O)C(O)C(C)(C)COP(=O)(O)OP(=O)(O)OC[C@H]1O[C@@H](n2cnc3c(N)ncnc32)[C@H](O)[C@@H]1OP(=O)(O)O (some centres unmarked) [Hexanoyl-CoA]
- kcat,app ([2]; acyl-CoA varied, 5 mM agmatine): 1.1 ± 0.04 s⁻¹
- Km [2, 15]: 110 µM

Molecule: CC(=O)NCCCNCCCCN [N ^1-acetylspermidine]
- acceptance as amine substrate [2]: not AgmNAT substrates

Molecule: CC(=O)NCCCCNCCCN [N ^8-acetylspermidine]
- difference in Km,app relative to spermidine ([2]; acetyl-CoA as co-substrate): ~ 2 fold
- increase in kcat,app compared to spermidine ([2]; acetyl-CoA as co-substrate): ~ 25 fold
- kcat,app [2, 16]: 32 ± 2 s⁻¹
- Km [2, 17]: 9100 ± 1000 µM

Molecule: CC(=O)NCCCCN [N-acetylputrescine]
- acceptance as amine substrate [2]: not AgmNAT substrates

Molecule: CCCCCCCC(=O)SCCNC(=O)CCNC(=O)[C@H](O)C(C)(C)COP(=O)(O)OP(=O)(O)OC[C@H]1O[C@@H](n2cnc3c(N)ncnc32)[C@H](O)[C@@H]1OP(=O)(O)O [Octanoyl-CoA]
- kcat,app ([2]; acyl-CoA varied, 5 mM agmatine): 0.61 ± 0.02 s⁻¹
- Km [2, 15]: 140 µM

Molecule: CCCCCCCC/C=C\CCCCCCCC(=O)SCCNC(=O)CCNC(=O)[C@H](O)C(C)(C)COP(=O)(O)OP(=O)(O)OC[C@H]1O[C@@H](n2cnc3c(N)ncnc32)[C@H](O)[C@@H]1OP(=O)(O)O [Oleoyl-CoA]
- Ki ([1]; varied substrate acetyl-CoA, constant agmatine (0.3 mM), read-out: Ki,s): 19 ± 1 µM
- Ki ([1]; varied substrate agmatine, constant acetyl-CoA (0.1 mM; 104 µM), read-out: Ki,i): 67 ± 4 µM
- Ki [1, 14]: 67 ± 4 µM
- type of inhibition plot (in words) ([1]; versus acetyl-CoA): competitive
- type of inhibition plot (in words) ([1]; versus agmatine): noncompetitive
- acceptance as acyl-CoA substrate ([2]; agmatine as amine substrate, oleoyl-CoA at 500 μM): not a substrate

Molecule: NCCCCN [Putrescine]
- kcat,app [2, 16]: 7.7 ± 0.3 s⁻¹
- Km [2, 17]: 51000 ± 3000 µM

Molecule: NCCCNCCCCNCCCN [Spermine]
- (kcat/Km)app,agmatine/(kcat/Km)app,polyamine ratio ([2]; acetyl-CoA as co-substrate): 15
- kcat,app [2, 16]: 77 ± 7 s⁻¹
- Km [2, 17]: 18000 ± 3000 µM

Molecule: N=C(N)NCCC[C@H](N)C(=O)O [arginine]
- acceptance as amine substrate [2]: not AgmNAT substrates

B1: Drosophila melanogaster AgmNAT (CG15766), wild-type (Drosophila melanogaster) (protein)
chain: MAKPIADDIVVRQVDVGETEQLMTFLLAHYYPEEPLTAGTHPPEPEAADKEFLLSNVPFGTCFVALHEGRIVAAVVAGPKDSHEPEHMAEEARKYAGGKWGSILHLLSAVETATDVCRRFSVPSCLHVHALGVDPQLRGRNLGGRLMETVAQRGRDLGHQLVSVDCTSVYSARLVQRLGYQLINTLRYVDHLDASGQQVIRPPPPHESVQTFVLHL
- Km [3]: 32000 ± 6000 µM
- kcat [3]: 1 ± 0.1 s⁻¹
- kcat/Km [3]: 32 ± 6 M⁻¹ s⁻¹
- Km [4]: 17000 ± 500 µM
- kcat [4]: 1.3 ± 0.009 s⁻¹
- kcat/Km [4]: 76 ± 0.5 M⁻¹ s⁻¹
- Km [5]: 300 ± 20 µM
- kcat [5]: 18 ± 1 s⁻¹
- kcat/Km [5]: 60000 ± 5000 M⁻¹ s⁻¹

B2: AgmNAT E34A mutant (Drosophila melanogaster; E34A) (protein)
chain: B1 chain with E34A
- Km [6]: 6000 ± 1000 µM
- kcat [6]: 0.013 ± 0.001 s⁻¹
- kcat/Km [6]: 2.3 ± 0.3 M⁻¹ s⁻¹
- Km [7]: 18 ± 3 µM
- kcat [7]: 0.011 ± 0.0004 s⁻¹
- kcat/Km [7]: 600 ± 100 M⁻¹ s⁻¹

B3: AgmNAT S171A mutant (Drosophila melanogaster; S171A) (protein)
chain: B1 chain with S171A
- Km [8]: 1000 ± 200 µM
- kcat [8]: 1.7 ± 0.1 s⁻¹
- kcat/Km [8]: 1600 ± 300 M⁻¹ s⁻¹
- Km [9]: 24 ± 1 µM
- kcat [9]: 1.84 ± 0.03 s⁻¹
- kcat/Km [9]: 75000 ± 3000 M⁻¹ s⁻¹

B4: AgmNAT H206A mutant (Drosophila melanogaster; H206A) (protein)
chain: B1 chain with H206A
- Km [10]: 420 ± 40 µM
- kcat [10]: 1.2 ± 0.1 s⁻¹
- kcat/Km [10]: 2800 ± 300 M⁻¹ s⁻¹
- Km [11]: (2.4 ± 0.3) × 10^2 μM
- kcat [11]: 1.3 ± 0.1 s⁻¹
- kcat/Km [11]: 5000 ± 1000 M⁻¹ s⁻¹

B5: AgmNAT P35A mutant (Drosophila melanogaster; P35A) (protein)
chain: B1 chain with P35A
- Km [12]: 180 ± 20 µM
- kcat [12]: 0.36 ± 0.02 s⁻¹
- kcat/Km [12]: 1900 ± 200 M⁻¹ s⁻¹
- Km [13]: (2.3 ± 0.3) × 10^2 μM
- kcat [13]: 0.43 ± 0.03 s⁻¹
- kcat/Km [13]: 1900 ± 300 M⁻¹ s⁻¹

From publication PMC5647378, “Structural and Mechanistic Analysis of Drosophila melanogaster Agmatine N-Acetyltransferase, an Enzyme that Catalyzes the Formation of N-Acetylagmatine” (Scientific Reports, 2017)
